This is an account of results in patent EP2852397B1.

The target of one assay is human Nav1.2 (human) (UniProt Q99250). The experiment in a line: cell-based or functional assay.
For another assay, the target named is human Nav1.7 (human) (UniProt Q15858). The experiment in a line: cell-based or functional assay.

In the assay with human Nav1.2 (human), recombinant Huwentoxin-IV (peptide) showed an IC50, veratridine-induced depolarization inhibition assay of 342 nM. In the assay with human Nav1.7 (human), the IC50, veratridine-induced depolarization inhibition assay was found to be 159 nM; the IC50, veratridine-induced depolarization inhibition assay (FRET, FLIPR Tetra) came to 160 nM; the ratio of IC50 for Nav1.2 to IC50 for Nav1.7 came to 2.14.
